For one molecule, Kd results are on record in patent US20040241164A1 (published 2004).

The target of this experiment is T1, Soluble Aβ 1-40 (UniProt P05067 672-711).
T1 construct: domain: Aβ 1-40; Unaggregated, predominantly monomeric peptide flowed over captured antibody; The numbers 1-40 count on the Aβ peptide, not on the APP precursor
Description: BIAcore SPR, alternate method: antibody captured on protein A or A/G, Aβ 1-40 in flow, 5 hour dissociation, 1:1 model with mass transfer; alternate method: antibody captured on protein A or A/G, 5 hour dissociation. For orientation: Surface plasmon resonance follows binding to a sensor surface in real time, without labels.
Description: Protein A or protein A/G is immobilized via amine coupling to flow cells 1 and 2 of a B1 or CM5 sensor chip (BIAcore). The test antibody is then captured in flow cell 2 at desired levels (usually a 10-60 second injection of antibody) and 5 minutes is allowed for the antibody to stabilize. […] Each concentration is injected over the surface for 5 minutes at a flow rate of 50 μL/min. […] Aβ 1-40 and antibody are then eluted from both flow cells with a 40 second injection of glycine (pH 1.5). The signal is allowed to stabilize for 2 minutes before the next cycle. The data from flow cell 1 is subtracted from flow cell 2 to account for any bulk shifts due to buffer differences or non-specific binding to the sensor chip or protein A. The various concentrations are injected randomly and each concentration is run in duplicate. Two 0 nM runs are used to control for any dissociation of antibody from the protein A or A/G capture surface. The data is analyzed using the Biaevalution software. A 1:1 model with mass transfer and a local Rmax is used as the best fit for the data.

B1: humanized 266 antibody (antibody, human IgG1, kappa, V domains shown)
VH: EVQLVESGGGLVQPGGSLRLSCAASGFTFSRYSMSWVRQAPGKGLELVAQINSVGNSTYYPDTVKGRFTISRDNAKNTLYLQMNSLRAEDTAVYYCASGDYWGQGTLVTVSS
VL: DVVMTQSPLSLPVTLGQPASISCRSSQSLIYSDGNAYLHWFLQKPGQSPRLLIYKVSNRFSGVPDRFSGSGSGTDFTLKISRVEAEDVGVYYCSQSTHVPWTFGQGTKVEIKR
The term Kd denotes the constant that tells how readily two partners part at equilibrium. The molecule B1 registered a Kd of 400 pM.
